Measured values as given in IntAct's records for PubMed 20543817.

B1: Neuroligin-1 (Rattus norvegicus (Rat)), Q62765-2 (parent)
chain: MALPRCMWPNYVWRAMMACVVHRGSGAPLTLCLLGCLLQTFHVLSQKLDDVDPLVTTNFGKIRGIKKELNNEILGPVIQFLGVPYAAPPTGEHRFQPPEPPSPWSDIRNATQFAPVCPQNIIDGRLPEVMLPVWFTNNLDVVSSYVQDQSEDCLYLNIYVPTEDDIRDSGGPKPVMVYIHGGSYMEGTGNLYDGSVLASYGNVIVITVNYRLGVLGFLSTGDQAAKGNYGLLDLIQALRWTSENIGFFGGDPLRITVFGSGAGGSCVNLLTLSHYSEGLFQRAIAQSGTALSSWAVSFQPAKYARILATKVGCNVSDTVELVECLQKKPYKELVDQDVQPARYHIAFGPVIDGDVIPDDPQILMEQGEFLNYDIMLGVNQGEGLKFVENIVDSDDGVSASDFDFAVSNFVDNLYGYPEGKDVLRETIKFMYTDWADRHNPETRRKTLLALFTDHQWVAPAVATADLHSNFGSPTYFYAFYHHCQTDQVPAWADAAHGDEVPYVLGIPMIGPTELFPCNFSKNDVMLSAVVMTYWTNFAKTGDPNQPVPQDTKFIHTKPNRFEEVAWTRYSQKDQLYLHIGLKPRVKEHYRANKVNLWLELVPHLHNLNDISQYTSTTTKVPSTDITLRPTRKNSTPVTSAFPTAKQDDPKQQPSPFSVDQRDYSTELSVTIAVGASLLFLNILAFAALYYKKDKRRHDVHRRCSPQRTTTNDLTHAPEEEIMSLQMKHTDLDHECESIHPHEVVLRTACPPDYTLAMRRSPDDVPLMTPNTITMIPNTIPGIQPLHTFNTFTGGQNNTLPHPHPHPHSHSTTRV
B2: Neuroligin-2 (Rattus norvegicus (Rat)), Q62888-2 (parent)
chain: MWLLALCLVGLAGAQRGGGGPGGGAPGGPGLGLGSLGEERFPVVNTAYGRVRGVRRELNNEILGPVVQFLGVPYATPPLGARRFQPPEAPASWPGVRNATTLPPACPQNLHGALPAIMLPVWFTDNLEAAATYVQNQSEDCLYLNLYVPTEDDIRDSGKKPVMLFLHGGSYMEGTGNMFDGSVLAAYGNVIVATLNYRLGVLGFLSTGDQAAKGNYGLLDQIQALRWLSENIAHFGGDPERITIFGSGAGASCVNLLILSHHSEGLFQKAIAQSGTAISSWSVNYQPLKYTRLLAAKVGCDREDSTEAVECLRRKSSRELVDQDVQPARYHIAFGPVVDGDVVPDDPEILMQQGEFLNYDMLIGVNQGEGLKFVEDSAESEDGVSASAFDFTVSNFVDNLYGYPEGKDVLRETIKFMYTDWADRDNGEMRRKTLLALFTDHQWVAPAVATAKLHADYQSPVYFYTFYHHCQAEGRPEWADAAHGDELPYVFGVPMVGATDLFPCNFSKNDVMLSAVVMTYWTNFAKTGDPNQPVPQDTKFIHTKPNRFEEVVWSKFNSKEKQYLHIGLKPRVRDNYRANKVAFWLELVPHLHNLHTELFTTTTRLPPYATRWPPRTPGPGTSGTRRPPPPATLPPESDIDLGPRAYDRFPGDSRDYSTELSVTVAVGASLLFLNILAFAALYYKRDRRQELRCRRLSPPGGSGSGVPGGGPLLPTAGRELPPEEELVSLQLKRGGGVGADPAEALRPACPPDYTLALRRAPDDVPLLAPGALTLLPSGLGPPPPPPPPSLHPFGPFPPPPPTATSHNNTLPHPHSTTRV

Variants of: B1
Details: with Nrxn1, Q63373-3
Target sequence in this assay (Q63373 other isoform, or with tags, fused parts or gaps): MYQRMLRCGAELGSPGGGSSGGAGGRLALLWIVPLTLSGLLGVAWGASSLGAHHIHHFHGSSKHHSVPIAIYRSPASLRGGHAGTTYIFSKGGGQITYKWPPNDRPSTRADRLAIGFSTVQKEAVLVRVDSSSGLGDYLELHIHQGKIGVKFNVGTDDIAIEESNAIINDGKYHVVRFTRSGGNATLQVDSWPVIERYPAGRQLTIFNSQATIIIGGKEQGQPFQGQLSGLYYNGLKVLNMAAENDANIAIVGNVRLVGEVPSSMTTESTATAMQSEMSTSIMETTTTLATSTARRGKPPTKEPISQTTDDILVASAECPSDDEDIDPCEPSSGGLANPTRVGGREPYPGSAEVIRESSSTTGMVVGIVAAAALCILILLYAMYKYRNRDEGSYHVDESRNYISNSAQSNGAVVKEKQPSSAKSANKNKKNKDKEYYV

Variant	effect of a mutation on the interaction
G471A	disrupting interaction

Variants of: B2
Details: with Nrxn1, Q63373-3
Target sequence in this assay (Q63373 other isoform, or with tags, fused parts or gaps): as above

Variant	effect of a mutation on the interaction
Q458G	increasing interaction
